Test results taken from US20240402174A1 (Takeda / Millennium, published 2024).

Key:
[1] = target: T1, GII.1 VLP (norovirus Hu/GII.1/Ascension208/2010/USA); assay: multiplex microsphere immunoassay
T1 chain: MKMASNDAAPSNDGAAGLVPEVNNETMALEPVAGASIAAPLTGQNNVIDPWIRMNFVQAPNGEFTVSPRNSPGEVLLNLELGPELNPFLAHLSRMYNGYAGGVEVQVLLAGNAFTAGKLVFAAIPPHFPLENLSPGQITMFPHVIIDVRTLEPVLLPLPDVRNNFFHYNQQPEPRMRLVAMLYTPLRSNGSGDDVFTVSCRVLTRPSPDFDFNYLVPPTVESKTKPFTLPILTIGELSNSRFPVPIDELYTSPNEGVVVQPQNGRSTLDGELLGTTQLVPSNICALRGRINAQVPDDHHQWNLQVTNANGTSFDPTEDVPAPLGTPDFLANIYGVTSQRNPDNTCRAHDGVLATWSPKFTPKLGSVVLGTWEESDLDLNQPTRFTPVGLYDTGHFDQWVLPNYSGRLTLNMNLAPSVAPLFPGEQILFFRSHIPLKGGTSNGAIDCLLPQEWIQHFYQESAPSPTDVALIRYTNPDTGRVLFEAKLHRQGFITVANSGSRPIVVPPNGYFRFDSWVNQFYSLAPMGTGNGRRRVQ

[2] = target: T2, GII.17/1978 VLP (norovirus Hu/GII.17/C142/GF/1978); assay: multiplex microsphere immunoassay
T2 construct: also called Hu/GII.17/C142/GF/1978
T2 chain: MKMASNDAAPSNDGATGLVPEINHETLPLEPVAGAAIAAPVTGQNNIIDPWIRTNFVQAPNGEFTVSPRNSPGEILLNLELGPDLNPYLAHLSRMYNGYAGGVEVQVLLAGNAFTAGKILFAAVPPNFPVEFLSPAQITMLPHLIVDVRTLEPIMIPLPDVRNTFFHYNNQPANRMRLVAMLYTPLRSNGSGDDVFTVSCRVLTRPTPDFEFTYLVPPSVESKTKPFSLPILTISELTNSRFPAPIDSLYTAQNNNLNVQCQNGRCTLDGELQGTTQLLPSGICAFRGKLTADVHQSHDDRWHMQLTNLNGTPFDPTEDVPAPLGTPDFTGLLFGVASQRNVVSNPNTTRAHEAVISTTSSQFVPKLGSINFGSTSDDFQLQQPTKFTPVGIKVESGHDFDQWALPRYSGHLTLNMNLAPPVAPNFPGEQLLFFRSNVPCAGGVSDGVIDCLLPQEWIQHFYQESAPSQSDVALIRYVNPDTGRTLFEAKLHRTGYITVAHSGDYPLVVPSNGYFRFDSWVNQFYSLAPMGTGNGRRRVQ

[3] = target: T3, GII.4/Yerseke VLP (norovirus Hu/GII.4/Yerseke38/2006/NL, UniProt P54635 1-539); assay: PGM blockade assay, serially diluted mAb
T3 construct: also called Hu/GII.4/Yerseke38/2006/NL
T3 chain: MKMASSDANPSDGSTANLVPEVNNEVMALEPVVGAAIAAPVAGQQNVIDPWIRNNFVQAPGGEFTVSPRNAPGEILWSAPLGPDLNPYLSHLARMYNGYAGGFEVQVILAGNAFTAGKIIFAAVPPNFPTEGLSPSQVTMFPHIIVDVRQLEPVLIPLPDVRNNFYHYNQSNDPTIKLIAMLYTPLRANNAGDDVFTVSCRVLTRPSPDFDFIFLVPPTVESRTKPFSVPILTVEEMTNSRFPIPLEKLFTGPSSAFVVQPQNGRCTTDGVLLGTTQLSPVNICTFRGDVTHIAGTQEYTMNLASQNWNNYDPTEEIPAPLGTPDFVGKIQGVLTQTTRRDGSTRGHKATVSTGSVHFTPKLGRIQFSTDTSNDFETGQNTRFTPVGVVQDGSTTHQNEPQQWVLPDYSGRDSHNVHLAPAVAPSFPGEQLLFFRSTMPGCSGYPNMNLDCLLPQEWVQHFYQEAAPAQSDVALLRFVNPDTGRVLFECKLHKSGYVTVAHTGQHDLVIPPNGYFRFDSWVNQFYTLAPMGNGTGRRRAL
Description: (§1) Plates were washed 3 times with PBST before use. […] The mixture was transferred to the PGM-coated plates including VLP-only controls and incubation carried out for 1 h at 22° C. or 37° C. Following 3 washes with PBST, detection antibody specific for the corresponding VLP was added and the plates were incubated at room temperature for 1 h and then washed 3 times with PBST. […] Following 3 washes, enzyme substrate (ABTS, KPL) was added and allowed to react for 12 min at room temperature. ABTS Peroxidase Stop Solution (KPL) was then added and plates were read at a wavelength of 450 nm in a Molecular Devices plate reader using SoftMax Pro Software (Molecular Devices, Downingtown, PA, USA) to obtain the Optical Density (GD) of each well.
(§2) The following, day corresponding dilutions incubated with VLPs were transferred to the PGM-coated plates. The OD data was curve fit and blocking titers were calculated as the supernatant dilution interpolated at 1/2 the maximum OD for the plate. The blocking titers represent the supernatant dilution that produces a 50% reduction in VLP binding to PGM. The maximum OD for the plate was calculated from the VLP only control.

[4] = target: T4, GII.4/Houston VLP (norovirus …, UniProt P54635 1-539); assay: PGM blockade assay, serially diluted mAb
T4 construct: also called Hu/GII.4/Houston/TCH186/2002/US
T4 chain: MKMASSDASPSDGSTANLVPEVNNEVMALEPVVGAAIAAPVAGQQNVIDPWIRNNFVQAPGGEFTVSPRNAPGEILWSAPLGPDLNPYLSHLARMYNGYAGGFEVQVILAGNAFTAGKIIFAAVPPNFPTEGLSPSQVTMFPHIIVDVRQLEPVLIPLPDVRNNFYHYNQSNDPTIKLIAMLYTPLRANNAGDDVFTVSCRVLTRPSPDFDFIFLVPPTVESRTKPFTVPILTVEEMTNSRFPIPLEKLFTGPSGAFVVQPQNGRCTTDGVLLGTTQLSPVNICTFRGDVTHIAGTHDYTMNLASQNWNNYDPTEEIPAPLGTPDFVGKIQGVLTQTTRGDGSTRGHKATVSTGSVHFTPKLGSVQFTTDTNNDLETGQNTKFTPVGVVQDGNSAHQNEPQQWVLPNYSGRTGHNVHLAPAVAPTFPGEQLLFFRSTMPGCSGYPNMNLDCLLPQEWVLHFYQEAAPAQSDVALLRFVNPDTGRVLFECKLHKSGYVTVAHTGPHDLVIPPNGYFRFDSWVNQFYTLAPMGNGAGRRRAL
Description: as §1, §2

[5] = target: T5, GII.4/Sydney VLP (norovirus …, UniProt P54635 1-538); assay: PGM blockade assay, serially diluted mAb
T5 construct: also called Hu/GII.4/Sydney/NSW0514/2012/AU
T5 chain: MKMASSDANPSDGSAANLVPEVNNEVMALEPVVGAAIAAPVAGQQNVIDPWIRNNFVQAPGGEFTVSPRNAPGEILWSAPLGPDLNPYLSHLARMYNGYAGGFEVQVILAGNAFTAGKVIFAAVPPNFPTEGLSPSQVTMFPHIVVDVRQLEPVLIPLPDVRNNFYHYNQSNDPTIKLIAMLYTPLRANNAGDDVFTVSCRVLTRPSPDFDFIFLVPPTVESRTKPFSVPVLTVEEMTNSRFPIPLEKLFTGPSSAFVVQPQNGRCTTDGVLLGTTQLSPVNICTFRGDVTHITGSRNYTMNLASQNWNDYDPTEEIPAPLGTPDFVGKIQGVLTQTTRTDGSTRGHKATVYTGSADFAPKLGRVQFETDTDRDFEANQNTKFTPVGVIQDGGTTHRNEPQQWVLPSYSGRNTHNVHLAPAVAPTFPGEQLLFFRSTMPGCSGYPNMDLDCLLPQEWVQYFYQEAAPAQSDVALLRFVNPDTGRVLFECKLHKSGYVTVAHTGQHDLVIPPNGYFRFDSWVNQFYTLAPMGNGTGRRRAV
Description: as §1, §2

B1: human mAb 1431 (antibody, V domains shown)
VH: QVQLVQSGGGLVQPGGSLRLSCAASGFAFSNHGMHWVRQAPGKGLEWLSYISGSTGAIHYANSVKGRFTISRDNARNSLDLQMNSLGDEDTAVYYCARDGPRPDGTGYAGPSNDYWGQGTLVSVSS
VL: EIVLTQSPASLSLSPGERATLSCKASRSISIYLAWYQQKPGQAPRLLIYDASYRAIGIPARFSGSGSGTDFTLTISNLEPEDFAVYYCQHRSSWPALTFGGGTKVEI
notes: also called A1431
- binding result [1]: no binding
- binding result [2]: no binding
- blocking titer [3]: 4850
- blocking titer [4]: 12100
- blocking titer [5]: 7280
